What all share (test): transient-state stopped-flow spectrofluorometry
Test [1] concerns the target L47fUAA GCK (human pancreatic glucokinase with L-(7-hydroxycoumarin-4-yl)ethylglycine in place of Leu47) (human) (UniProt P35557).
Test [2] has the same target. The source holds these as a separate data set.
The target is the same in test [3]. This is another data set of the same source.

Where two headings read alike, the source gives them in different places.

On to “glucokinase regulatory protein (GKRP) (from UniProt Q14397 1-625) (natural protein)”, for which, in test [1], the dissociation constant (Kd) turned out to be 124 nM. In addition, in test [2], the K2 (step 2, equilibrium constant of isomerisation) was 0.72; the dissociation constant Kd came out at 123 nM; the Kd,intrinsic (step 1, encounter complex) is 210 nM; the k1 (step 1, formation of the encounter complex) was determined as 170000 M⁻¹ s⁻¹. Besides, in test [2], the k−1 (step 1, dissociation of the encounter complex) was 0.036 s⁻¹ and the k−2 (step 2, isomerisation reverse) was 0.36 s⁻¹. In test [3], this substance displayed a K2 (step 2, equilibrium constant of isomerisation) of 0.51; a dissociation constant (Kd) of 21000 nM; a Kd,intrinsic (step 1, encounter complex) of 32000 nM; a k1 (step 1, formation of the encounter complex) of 64000 M⁻¹ s⁻¹. In test [3], this substance displayed a k−1 (step 1, dissociation of the encounter complex) of 2.06 s⁻¹ and a k−2 (step 2, isomerisation reverse) of 0.21 s⁻¹.

One may read the Kd as a measure of binding affinity in units of concentration. Low values mean tighter binding, high ones weaker binding.

The values above are taken from publication PMC7140980.
